Holding throughout (details): remark: other sources report otherwise
Test [1] deals with T1, Human kallikrein (analyte in the Biacore assay) (human), P03952. The test is described as follows: SPR, Biacore T200, 25 C, HBS-EP+; antibody captured through Fc, human kallikrein as analyte; full length antibody. For orientation: SPR reads the build-up and loss of mass on a sensor chip optically.
The target in test [2] is T1, Human kallikrein (analyte in the …). The test is described as follows: SPR, Biacore T200, 25 C, HBS-EP+; antibody captured on the chip through Fc, human kallikrein (activated, purified from human plasma) as analyte.
For test [3] the target is unchanged. The test is described as above. This is another data set of the same source.

This note sets out measurements from patent publication US20250326861A1.

A word on the Kd: it is the free concentration of one partner at which half of the binding sites on the other are occupied at equilibrium, for simple one-to-one binding. Lower therefore signals a tighter complex. Usually koff stands for a measure of how fast the partners let go of each other. A lower koff goes with a long-lived complex. Usually kon stands for the rate constant with which the complex forms. High values mean fast association, low ones slow association.

Where “and” joins values, the source holds several entries; their conditions need not be identical. Identical values can stand only once.

T1 sequence (P03952 20-638 limits assumed): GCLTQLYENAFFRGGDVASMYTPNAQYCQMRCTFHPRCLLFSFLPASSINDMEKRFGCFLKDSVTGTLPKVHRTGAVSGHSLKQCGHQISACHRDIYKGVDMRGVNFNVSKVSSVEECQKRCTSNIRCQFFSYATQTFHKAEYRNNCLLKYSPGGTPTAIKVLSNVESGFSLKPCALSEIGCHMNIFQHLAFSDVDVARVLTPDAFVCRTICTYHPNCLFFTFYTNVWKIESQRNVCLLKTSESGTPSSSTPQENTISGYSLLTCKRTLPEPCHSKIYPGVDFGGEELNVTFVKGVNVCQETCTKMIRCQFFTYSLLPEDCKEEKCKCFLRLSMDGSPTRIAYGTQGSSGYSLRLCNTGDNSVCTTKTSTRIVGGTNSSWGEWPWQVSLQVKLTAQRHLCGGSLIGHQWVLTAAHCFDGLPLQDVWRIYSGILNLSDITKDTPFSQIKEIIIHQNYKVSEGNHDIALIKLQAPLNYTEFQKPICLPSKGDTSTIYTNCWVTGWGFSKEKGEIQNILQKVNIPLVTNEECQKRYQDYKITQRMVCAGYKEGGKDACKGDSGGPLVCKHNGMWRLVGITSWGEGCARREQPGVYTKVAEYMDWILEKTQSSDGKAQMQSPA

B1: Lanadelumab (full length anti-pKal antibody) (antibody, IgG1, V domains shown)
VH: EVQLLESGGGLVQPGGSLRLSCAASGFTFSHYIMMWVRQAPGKGLEWVSGIYSSGGITVYADSVKGRFTISRDNSKNTLYLQMNSLRAEDTAVYYCAYRRIGVPRRDEFDIWGQGTMVTVSS
VL: DIQMTQSPSTLSASVGDRVTITCRASQSISSWLAWYQQKPGKAPKLLIYKASTLESGVPSRFSGSGSGTEFTLTISSLQPDDFATYYCQQYNTYWTFGQGTKVEIK
In test [1], B1 came in with a Kd of 1.74 nM. For the same molecule, in test [2], the equilibrium dissociation constant (Kd) is 6.73 nM and 5.76 nM and 5.54 nM; the off-rate (koff) was 0.000315 s⁻¹ and 0.000297 s⁻¹ and 0.000291 s⁻¹; the kon was 51500 M⁻¹ s⁻¹ and 52600 M⁻¹ s⁻¹ and 46700 M⁻¹ s⁻¹. In test [3], this molecule returned a koff of 0.000347 s⁻¹ and a kon of 199000 M⁻¹ s⁻¹.
